Test results as given in patent US20240285788A1, “CONJUGATE OF ANTIBODY AND FUNCTIONAL SUBSTANCE OR SALT THEREOF, AND ANTIBODY DERIVATIVE AND COMPOUND USED IN PRODUCTION OF THE SAME OR SALTS THEREOF” (Ajinomoto Co., Inc., priority 2021, published 2024).

How the values were obtained:
[1] = Evaluation of degree of hydrophobicity by hydrophobic column chromatography (HIC-HPLC); assay type: physicochemical; details: for Retention time: ADC mimics from thiol group-introduced trastuzumab, DAR 2
Protocol: (§1) According to a previous report (Anal. Chem., 2019, 91, 20, 12724-12732, which is incorporated herein by reference in tis entirety), HIC-HPLC analysis was performed. Measurement was performed using the following conditions. Degrees of hydrophobicity of an ADC can be evaluated by retention time of the ADC in HIC chromatogram.
Measurement system: Chromaster (registered trademark) (manufactured by Hitachi, Ltd.)
Column: Tosoh Biobuthyl NPR 2.5 μm 4.6×35 mm column manufactured by Tosoh Bio-Sciences Inc.
Gradient: linear gradient of eluent A/B
Eluent B: 25 mM Na2HPO4/NaH2PO4 (pH 6.0, 25 v/v % isopropanol added)
For DAR analysis of the ADC mimics synthesized in Example 7 and Comparative Example 2, HIC-HPLC analysis was performed according to a previous report (Anal. Chem., 2019, 91, 20, 12724-12732, which is incorporated herein by reference in its entirety). Measurement was performed using the following conditions.
HIC-HPLC analysis was performed using the condition of Example 8. Measurement was performed using the following conditions. A degree of hydrophobicity of ADC mimic can be evaluated by retention time of ADC in HIC chromatogram.
HIC-HPLC analysis was performed using the condition of Example 8.
Subsequently, hydrophobicity of an ADC was evaluated using HIC-HPLC. Measurement was performed according to Example 9. A degree of hydrophobicity of an ADC can be evaluated by retention time of ADC in HIC chromatogram.
as §1, with “its” for “tis”

[2] = Evaluation of aggregation ratio by size exclusion chromatography (SEC-HPLC); assay type: physicochemical
Protocol: SEC-HPLC analysis was performed according to a previous report (Chemistry Select, 2020, 5, 8435-8439). Measurement was performed using the following conditions.
Measurement system: 1260 HPLC system (manufactured by Agilent)
Column: AdvanceBio SEC 300 Å, 2.7 μm, 4.6 mm×150 mm, manufactured by Agilent Technologies
Eluent: 100 mM sodium dihydrogen phosphate/sodium hydrogen phosphate, aqueous solution of 250 mM sodium chloride (pH 6.8), 10% v/v isopropanol
SEC-HPLC analysis was performed according to Example 10.

## CSC1CC(=O)N(CCCCCNC(=O)C(OC(=O)N(C)CC(=O)NCc2ccc3ccc4cccc5ccc2c3c45)c2ccc(NC(=O)[C@H](CCCNC(N)=O)NC(=O)[C@@H](NC(=O)[C@H](CCC(=O)O)NC(=O)[C@H](CCC(=O)O)NC(C)=O)C(C)C)cc2)C1=O (stereo partly drawn) [ADC mimic 13]
[1]
  degree of hydrophilicity judged from retention time in HIC chromatogram (in words): more hydrophilic
[2]
  tendency of aggregation ratio by SEC-HPLC (in words): low aggregation ratios

## CCCCCNC(=O)CCSC1CC(=O)N(CCCCCNC(=O)C(OC(=O)N(C)CC(=O)NCc2ccc3ccc4cccc5ccc2c3c45)c2ccc(NC(=O)[C@H](CCCNC(N)=O)NC(=O)[C@@H](NC(=O)OCc3ccccc3)C(C)C)cc2)C1=O (stereo partly drawn) [ADC mimic 5]
[1]; Table 2, HIC-HPLC
  Retention time: 13.6 min
[1]; Table 20
  Retention time: 13.6 min

## CSC1CC(=O)N(CCCCCNC(=O)C(OC(=O)N(C)CC(=O)NCc2ccc3ccc4cccc5ccc2c3c45)c2ccc(NC(=O)[C@H](CCCNC(N)=O)NC(=O)[C@@H](NC(=O)[C@H](CCC(=O)O)NC(C)=O)C(C)C)cc2)C1=O (stereo partly drawn) [ADC mimic 12]
[1]
  degree of hydrophilicity judged from retention time in HIC chromatogram (in words): more hydrophilic

## CSC1CC(=O)N(CCCCCNC(=O)C(OC(=O)N(C)CC(=O)NCc2ccc3ccc4cccc5ccc2c3c45)c2ccc(NC(=O)[C@H](C)NC(=O)[C@@H](NC(=O)[C@H](CCC(=O)O)NC(C)=O)C(C)C)cc2)C1=O (stereo partly drawn) [ADC mimic 14]
[1]
  degree of hydrophilicity judged from retention time in HIC chromatogram (in words): more hydrophilic
